To fix the notation:
B1: 14-3-3σ with truncated C-terminus ΔC232-248 (domain or fragment, human, UniProt P31947 1-231, looked up)
chain: MERASLIQKAKLAEQAERYEDMAAFMKGAVEKGEELSCEERNLLSVAYKNVVGGQRAAWRVLSSIEQKSNEEGSEEKGPEVREYREKVETELQGVCDTVLGLLDSHLIKEAGDAESRVFYLKMKGDYYRYLAEVATGDDKKRIIDSARSAYQEAMDISKKEMPPTNPIRLGLALNFSVFHYEIANSPEEAISLAKTTFDEAMADLHTLSEDSYKDSTLIMQLLRDNLTLWT

Series [1] has as its target FITC-labeled IκBαpS63 peptide (phosphorylated 14-3-3 binding motif of IκBα) (human) (UniProt P25963). Kind of series: fluorescence polarisation. On the technique in general: Fluorescence polarisation rises when a labelled molecule tumbles more slowly, as on binding a larger partner.
In series [2] the target is T1, W59F and W228F double mutation of 14-3-3ζ (human, UniProt P63104 1-245, W59F | W228F).
T1 sequence (looked up): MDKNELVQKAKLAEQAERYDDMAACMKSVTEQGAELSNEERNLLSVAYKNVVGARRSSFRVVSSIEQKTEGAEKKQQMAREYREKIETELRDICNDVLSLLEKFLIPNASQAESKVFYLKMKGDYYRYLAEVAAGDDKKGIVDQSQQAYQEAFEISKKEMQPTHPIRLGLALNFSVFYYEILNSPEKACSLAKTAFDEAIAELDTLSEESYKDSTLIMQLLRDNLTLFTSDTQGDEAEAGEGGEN
Kind of series: fluorescence polarisation.

The series “crystal structure” deals with the molecule itself. Kind of series: crystal structure.
For series [3], the target named is B1. The series can be described thus: crystal structure.

Square brackets hold non-standard residues; d marks the D form. Primed or numbered codes have the meaning given here. FITC′ = fluorescein isothiocyanate; pS = N[C@@H](COP(=O)(O)O)C(=O)O; βAla = NCCC(=O)O

Broadly, the Kd is the concentration at which binding is half-saturated. A lower Kd goes with higher affinity. “14-3-3ζ (from UniProt P63104 1-245) (natural protein)”: in series [1], the Kd was found to be 380 µM. Turning to {FITC′-βAla}-QEVPRG[pS]EPWKQQ-NH2 (peptide, UniProt P25963 57-69, looked up) [FITC-labeled IκBαpS63 peptide (phosphorylated 14-3-3 binding motif of IκBα)], in series [2], the Kd was ~415 µM.

With B1, the binding result in the series “crystal structure” is “binds”. In the case of Ac-QEVPRG[pS]EPWKQQ-NH2 (peptide, UniProt P25963 57-69, looked up) [unlabeled (N-terminally acetylated) IκBαpS63 peptide], the binding result in series [3] was “binds”.

The record behind these values is PMC7081424 (ACS Omega, 2020).
